Laboratory results as given in patent US20200308301A1 (Novartis, published 2020).

B1: IDT2 (Fab, V domains shown)
VH: QVQLVESGGGLVKPGGSLRLSCAASGFTFSSAAVHWVRQAPGKGLEWVGRIKSKADGGTTDYAAPVKGRFTISRDDSKNTLYLQMNSLKTEDTAVYYCARDSPSISSYSIPYFSGMDVWGQGTLVTVSS
VL: DIQMTQSPSSLSASVGDRVTITCRASQGIRAWLNWYQQKPGKAPKLLIYAASSLQSGVPSRFSGSGSGTDFTLTISSLQPEDFATYYCHQYITHPPTFGQGTKVEIKR
notes: Fab; also called anti-NOV1401 Fab IDT2
B2: IDT9 (Fab, V domains shown)
VH: QVQLVQSGAEVKKPGASVKVSCKASGYTFTNYYVHWVRQAPGQGLEWMGWINPYNGNTNYAQKFQGRVTMTRDTSISTAYMELSRLRSEDTAVYYCARGASSIRMSYYLDVWGQGTLVTVSS
VL: DIQMTQSPSSLSASVGDRVTITCRASQSISNYLNWYQQKPGKAPKLLIYAASNLQSGVPSRFSGSGSGTDFTLTISSLQPEDFATYYCFQYTHSPATFGQGTKVEIKR
notes: Fab; also called anti-NOV1401 Fab IDT9
B3: IDT7 (Fab, V domains shown)
VH: QVQLVESGGGLVKPGGSLRLSCAASGFTFSSNAMHWVRQAPGKGLEWVGRIKSKTDGGTTDYAAPVKGRFTISRDDSKNTLYLQMNSLKTEDTAVYYCARDHYYYPFAYWGQGTLVTVSS
VL: DIQMTQSPSSLSASVGDRVTITCRASQSIRYNLAWYQQKPGKAPKLLIYAASSLQSGVPSRFSGSGSGTDFTLTISSLQPEDFATYYCHQYIAKPITFGQGTKVEIKR
notes: Fab; also called anti-NOV1401 Fab IDT7
B4: IDT10 (Fab, V domains shown)
VH: QVQLVQSGAEVKKPGASVKVSCKASGYTFTNYYVHWVRQAPGQGLEWMGWINPYSGNTNYAQKFQGRVTMTRDTSISTAYMELSRLRSEDTAVYYCARGASSIRMSYYLDVWGQGTLVTVSS
VL: DIQMTQSPSSLSASVGDRVTITCRASQSISNYLNWYQQKPGKAPKLLIYAASNLQSGVPSRFSGSGSGTDFTLTISSLQPEDFATYYCFQYTHSPATFGQGTKVEIKR
notes: Fab; also called anti-NOV1401 Fab IDT10
B5: IDT5 (Fab, V domains shown)
VH: QVQLVESGGGLVKPGGSLRLSCAASGFTFSSAAVHWVRQAPGKGLEWVGRIKSKADAGTTDYAAPVKGRFTISRDDSKNTLYLQMNSLKTEDTAVYYCARDSPSISSYSIPYFSGMDVWGQGTLVTVSS
VL: DIQMTQSPSSLSASVGDRVTITCRASQGIRAWLNWYQQKPGKAPKLLIYAASSLQSGVPSRFSGSGSGTDFTLTISSLQPEDFATYYCHQYITHPPTFGQGTKVEIKR
notes: Fab; also called anti-NOV1401 Fab IDT5
B6: IDT8 (Fab, V domains shown)
VH: QVQLVESGGGLVKPGGSLRLSCAASGFTFSSNAMHWVRQAPGKGLEWVGRIKSKTSGGTTDYAAPVKGRFTISRDDSKNTLYLQMNSLKTEDTAVYYCARDHYYYPFAYWGQGTLVTVSS
VL: DIQMTQSPSSLSASVGDRVTITCRASQSIRYNLAWYQQKPGKAPKLLIYAASSLQSGVPSRFSGSGSGTDFTLTISSLQPEDFATYYCHQYIAKPITFGQGTKVEIKR
notes: Fab; also called anti-NOV1401 Fab IDT8
B7: IDT4 (Fab, V domains shown)
VH: QVQLVESGGGLVKPGGSLRLSCAASGFTFSSAAVHWVRQAPGKGLEWVGRIKSKASGGTTDYAAPVKGRFTISRDDSKNTLYLQMNSLKTEDTAVYYCARDSPSISSYSIPYFSGMDVWGQGTLVTVSS
VL: DIQMTQSPSSLSASVGDRVTITCRASQGIRAWLNWYQQKPGKAPKLLIYAASSLQSGVPSRFSGSGSGTDFTLTISSLQPEDFATYYCHQYITHPPTFGQGTKVEIKR
notes: Fab; also called anti-NOV1401 Fab IDT4
B8: IDT6 (Fab, V domains shown)
VH: QVQLVQSGAEVKKPGESLKISCKGSGYSFTNYWIGWVRQMPGKGLEWMGIIFPGVSYTKYSPSFQGQVTISADKSISTAYLQWSSLKASDTAMYYCARGSDQTLRGSRAMDYWGQGTLVTVSS
VL: QSALTQPASVSGSPGQSITISCTGTSSDVGISNYVSWYQQHPGKAPKLMIYEVSNRPSGVSNRFSGSKSGNTASLTISGLQAEDEADYYCQSYTSLNYVFGGGTKLTVLG
notes: Fab with a lambda light chain; also called anti-NOV1401 Fab IDT6

Tests used:
NOV1401 [1] = test: cell-based or functional assay
NOV1401 [2] = test: cell-based or functional assay; remark: listed apart in the source
NOV1401 [3] = target: T1, NOV1401; test: Solution equilibrium titration (SET), 1:1 fit, average
T1 construct: It was amine-coupled to the chip in SPR, and used soluble and biotinylated in SET; also called anti-FXI/FXIa antibody NOV1401; anti-Factor XI/FXIa antibody NOV1401
Experimental: (§1) 14 serial (2×) dilutions of NOV1401 were prepared in sample buffer (PBS pH 7.4 containing 0.5% (w/v) BSA and 0.02% Tween 20) and a constant concentration of the anti-NOV1401 Fab or IgG was added to each NOV1401 concentration ranging from 40 pM to 240 pM. Optimal constant anti-NOV1401 Fab or IgG concentrations and optimal starting concentrations for NOV1401 dilution series were determined in pilot experiments.
(§2) After incubation and three times washing with PBST (PBS containing 0.05% Tween 20) 30 μl/well of the NOV1401/anti-NOV1401 Fab or IgG preparation was transferred from the polypropylene MTP to the NOV1401-coated SA plate and incubated for 30 min at RT on a MTP shaker. After three additional wash steps, 30 μl of 0.5 μg/ml detection antibody (Goat anti-human Kappa LC-HRP, BETHYL # A80-115P) diluted in sample buffer was added to each well and incubated for 1 h at RT with shaking. After washing the plate again three times, 30 μl of detection reagent (LumiGLO Peroxidase Chemiluminescent Substrate, KPL #54-61-01) was added to each well. Electrochemiluminescence (ECL) signals were generated and detected immediately with a luminescence imager (SpectraMax M5, Molecular Devices, LLC).
Average ECL-signals were calculated from duplicate measurements within each assay. Data were baseline adjusted by subtracting the lowest value from all data points and plotted against the corresponding antigen concentration. KD values were determined by fitting the plot with the following non-linear curve fitting model for 1:1 binding according to Haenel et al 2005: […]

NOV1401 [4] = target: T1, NOV1401; test: SPR (ProteOn XPR36), NOV1401 immobilized, Fab as analyte, 1:1 Langmuir fit, average
Experimental: SPR binding experiments were performed on a ProteOn XPR36 instrument (Bio-Rad Laboratories, Inc.) in PBS/T buffer (50 mM phosphate, 150 mM NaCl, pH 7.4, 0.005% v/v Tween-20) at 25° C. NOV1401 (‘Ligand’) was immobilized onto an activated ProteOn GLC sensor chip (Bio-Rad Laboratories, Inc.) using standard amine coupling procedures as described by the manufacturer. Briefly, NOV1401 was injected at a concentration of 10 μg/ml in 20 mM sodium acetate, pH 5.0 and at a flow rate of 30 μl/min for 10 min. Unreacted groups were blocked by injecting 1 M ethanolamine.
For kinetic studies anti-NOV1401 Fabs (‘Analytes’) were diluted in PBS/T buffer to generate a dilution series with concentrations ranging from 0.125-4 nM. Fabs were injected onto surfaces with immobilized NOV1401 at a flow rate of 100 μL/min and sensorgrams were recorded for association and dissociation times of 220 s and 1800 s, respectively. Blank surfaces were used for background corrections. There was no need to regenerate surfaces since the ProteOn protein interaction array system allows to run up to six binding experiments on an identical surface in parallel.
Data processing and analysis including kon, koff, and KD determination were performed with the ProteOn Manager™ software version 3.1.0.6.

NOV1401 [5] = target: T1, NOV1401; test: SET (solution equilibrium titration): constant anti-NOV1401 Fab with a NOV1401 dilution series, free Fab captured on a biotinylated-NOV1401 streptavidin plate, luminescence (RLU), 1:1 fit
Experimental: as §1
as §2, with “After washing the plate again three times, 30 μl of detection reagent (LumiGLO Peroxidase Chemiluminescent Substrate, KPL #54-61-01) was added to each well.” left out
Target sequence in this assay (VL, as listed by the source): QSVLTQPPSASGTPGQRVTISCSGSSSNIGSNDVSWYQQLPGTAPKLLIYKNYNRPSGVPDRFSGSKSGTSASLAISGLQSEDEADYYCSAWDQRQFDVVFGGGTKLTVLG
Average ECL-signals were calculated from duplicate measurements within each assay. […] KD values were determined by fitting the plot with the following non-linear curve fitting model for 1:1 binding according to Haenel et al 2005: […]

Binder | aPTT percentage reversal, NOV1401/anti NOV1401 ratio 1/1 (n/n) (NOV1401 [1]) [%] | aPTT percentage reversal, NOV1401/anti NOV1401 ratio 1/3 (n/n) (NOV1401 [1]) [%] | aPTT percentage reversal, NOV1401/anti NOV1401 ratio 1/10 (n/n) (NOV1401 [1]) [%] | TGA percentage reversal, NOV1401/anti NOV1401 ratio 1/1 (n/n) (NOV1401 [2]) [%] | TGA percentage reversal, NOV1401/anti NOV1401 ratio 1/3 (n/n) (NOV1401 [2]) [%] | TGA percentage reversal, NOV1401/anti NOV1401 ratio 1/10 (n/n) (NOV1401 [2]) [%] | Kd (NOV1401 [3]) [pM] | Kd (NOV1401 [4]) [pM] | Kd (NOV1401 [5]) [pM]
B1 | 21 | 42 | 55 | 55 | 57 | 61 | 100 | 230 | 
B2 | 10 | 25 | 46 | 41 | 61 | 72 | 680 | 1920 | 
B3 | 16 | 37 | 54 | 50 | 66 | 71 | 960 | 330 | 160
B4 | 12 | 25 | 40 | 37 | 45 | 57 | 1190 | 5970 | 
B5 | 17 | 42 | 56 | 55 | 56 | 72 | 140 | 350 | 
B6 | 8 | 25 | 42 | 41 | 56 | 69 | 160 | 2150 | 960
B7 | 10 | 27 | 39 | 33 | 53 | 60 | 970 | 310 | 
B8 | 9 | 22 | 38 | 18 | 41 | 37 |  | 10100 | 
